Assay results as given in patent publication US20200317768A1 (published 2020).
Changes are numbered by the printed parent chain.

T1: cynomolgus monkey FcγRIIa1 extracellular domain, C-terminal His-tag (cynomolgus monkey)
T1 construct: also called cyno FcγRIIa1; cynoFcgRIIa1; not shown: His-tag added to C-terminus
T1 chain: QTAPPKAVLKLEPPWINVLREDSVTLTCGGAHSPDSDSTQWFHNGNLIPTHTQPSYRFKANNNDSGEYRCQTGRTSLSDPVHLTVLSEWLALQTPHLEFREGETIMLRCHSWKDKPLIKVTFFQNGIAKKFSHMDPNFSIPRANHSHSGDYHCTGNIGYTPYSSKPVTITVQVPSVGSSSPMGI

T2: cynomolgus monkey FcγRIIa2 extracellular domain, C-terminal His-tag (cynomolgus monkey)
T2 construct: also called cyno FcγRIIa2; cynoFcgRIIa2; not shown: His-tag added to C-terminus
T2 chain: T1 chain with P95T, T121A, I127K, A128S, K130N, D135N, R142Q

T3: cynomolgus monkey FcγRIIa3 extracellular domain, C-terminal His-tag (cynomolgus monkey)
T3 construct: also called cyno FcγRIIa3; cynoFcgRIIa3; not shown: His-tag added to C-terminus
T3 chain: T1 chain with P95T, T121A, A128S, H133P, D135N

T4: cynomolgus monkey FcγRIIb extracellular domain, C-terminal His-tag (cynomolgus monkey)
T4 construct: also called cyno FcγRIIb; cynoFcγRIIb; not shown: His-tag added to C-terminus
T4 chain: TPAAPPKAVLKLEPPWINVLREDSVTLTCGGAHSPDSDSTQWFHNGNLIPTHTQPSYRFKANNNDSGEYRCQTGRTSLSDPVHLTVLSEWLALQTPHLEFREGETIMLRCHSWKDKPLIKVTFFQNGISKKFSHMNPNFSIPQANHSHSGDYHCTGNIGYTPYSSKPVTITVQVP

T5: human FcγRIIaH extracellular domain, C-terminal His-tag (human, UniProt P12318 34-217)
T5 construct: also called human FcγRIIa (type H); FcgRIIaH; not shown: His-tag added to C-terminus
T5 sequence: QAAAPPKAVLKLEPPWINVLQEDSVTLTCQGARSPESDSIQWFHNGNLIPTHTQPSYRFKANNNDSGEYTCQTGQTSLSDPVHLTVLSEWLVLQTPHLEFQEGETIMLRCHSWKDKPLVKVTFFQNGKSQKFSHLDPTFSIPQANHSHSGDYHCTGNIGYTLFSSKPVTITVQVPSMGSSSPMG

T6: human FcγRIIaR extracellular domain, C-terminal His-tag (human, UniProt P12318 34-217)
T6 construct: also called human FcγRIIa (type R); FcgRIIaR; not shown: His-tag added to C-terminus
T6 chain: T5 sequence with H134R

B1: MS_M103205H795-SG1/M103202L889-SK1 (antibody, human IgG1, kappa)
heavy: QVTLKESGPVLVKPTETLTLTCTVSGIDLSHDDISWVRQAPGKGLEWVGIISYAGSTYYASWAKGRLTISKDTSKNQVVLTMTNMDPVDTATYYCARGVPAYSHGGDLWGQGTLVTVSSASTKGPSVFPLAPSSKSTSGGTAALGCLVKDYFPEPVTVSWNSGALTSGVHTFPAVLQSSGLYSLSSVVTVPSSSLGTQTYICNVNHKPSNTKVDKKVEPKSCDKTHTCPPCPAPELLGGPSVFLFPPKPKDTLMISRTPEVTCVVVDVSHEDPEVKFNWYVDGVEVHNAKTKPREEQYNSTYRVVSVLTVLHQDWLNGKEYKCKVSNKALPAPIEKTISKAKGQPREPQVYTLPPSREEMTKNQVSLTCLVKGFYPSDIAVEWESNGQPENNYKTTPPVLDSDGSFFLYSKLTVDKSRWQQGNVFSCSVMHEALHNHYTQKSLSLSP
light: DIVMTQSPATLSLSPGERATLSCTSSQSVYHANWLSWFQQKPGQPPKLLIYWASTLAYGVPSRFSGSGSGTDFTLTISSLQPEDAATYYCAGGYGGGRYAFGQGTKVEIKRTVAAPSVFIFPPSDEQLKSGTASVVCLLNNFYPREAKVQWKVDNALQSGNSQESVTEQDSKDSTYSLSSTLTLSKADYEKHKVYACEVTHQGLSSPVTKSFNRGEC
notes: Parent antibody; also called MS1032LO06-SG1
B2: M103205H795-MY228/M103202L889-SK1 (antibody, human IgG1, kappa)
heavy: QVTLKESGPVLVKPTETLTLTCTVSGIDLSHDDISWVRQAPGKGLEWVGIISYAGSTYYASWAKGRLTISKDTSKNQVVLTMTNMDPVDTATYYCARGVPAYSHGGDLWGQGTLVTVSSASTKGPSVFPLAPSSKSTSGGTAALGCLVKDYFPEPVTVSWNSGALTSGVHTFPAVLQSSGLYSLSSVVTVPSSSLGTQTYICNVNHKPSNTKVDKKVEPKSCDKTHTCPPCPAPELLGYPSVFLFPPKPKDTLMISRTPEVTCVVVDVSDEDPEVKFNWYVDGVEVHNAKTKPREELYNSTYRVVSVLTVLHQDWLNGKEYKCKVSNKALPKPIEKTISKAKGQPREPQVYTLPPSREEMTKNQVSLTCLVKGFYPSDIAVEWESNGQPENNYKTTPPVLDSDGSFFLYSKLTVDKSRWQQGNVFSCSVMHEALHNHYTQKSLSLSP
light: B1 light
B3: M103205H795-MY143/M103202L889-SK1 (antibody, human IgG1, kappa)
heavy: B2 heavy with G238S, Y239G, D270E, L297Q, K332A, P398M
light: B1 light
B4: M103205H795-MY219/M103202L889-SK1 (antibody, human IgG1, kappa)
heavy: B2 heavy with L297Q
light: B1 light
B5: M103205H795-MY209/M103202L889-SK1 (antibody, human IgG1, kappa)
heavy: B2 heavy with G238N, Y239G, K328T
light: B1 light
B6: M103205H795-MY142/M103202L889-SK1 (antibody, human IgG1, kappa)
heavy: B2 heavy with G238E, Y239G, D270E, L297Q, K332A, P398M
light: B1 light
B7: M103205H795-MY280/M103202L889-SK1 (antibody, human IgG1, kappa)
heavy: B2 heavy with G238V, Y239G
light: B1 light
B8: M103205H795-MY227/M103202L889-SK1 (antibody, human IgG1, kappa)
heavy: B2 heavy with L297Q, P398K
light: B1 light
B9: M103205H795-MY213/M103202L889-SK1 (antibody, human IgG1, kappa)
heavy: B2 heavy with G238N, Y239G, L297Q, P398K
light: B1 light
B10: M103205H795-MY229/M103202L889-SK1 (antibody, human IgG1, kappa)
heavy: B2 heavy with P398K
light: B1 light

Target: T1, cynomolgus monkey FcγRIIa1 …
Experiment: SPR (Biacore), KD of SG1 / KD of variant;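 further: relative to parent M103205H795-SG1 carrying the SG1 human heavy chain constant region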
Method: (§1) The kinetic analysis of interactions between these antibodies and FcγR was carried out using BIACORE® T200 or BIACORE® 4000 (GE Healthcare). HBS-EP+ (GE Healthcare) was used as the running buffer, and the measurement temperature was set to 25° C. A chip produced by immobilizing Protein A. Protein A/G or mouse anti-human IgG kappa light chain (BD Biosciences) onto a Series S Sensor Chip CM4 or CM5 (GE Healthcare) by the amine-coupling method was used. […] After the measurement, the antibody captured on the chip was washed off by allowing reaction with 10 mM glycine-HCl, pH1.5 and 25 mM NaOH so that the chip was regenerated and used repeatedly. The sensorgrams obtained as measurement results were analyzed by the 1:1 Langmuir binding model using the BIACORE® Evaluation Software to calculate the binding rate constant ka (L/mol/s) and dissociation rate constant kd (l/s), and the dissociation constant KD (mol/L) was calculated from these values. […] Regarding such interactions, KD values were calculated using the following 1:1 binding model described in BIACORE® T100 Software Handbook BR1006-48 Edition AE.
(§2) The behavior of interacting molecules according to the 1:1 binding model on BIACORE® can be described by Equation 1: Req=C·R max/(KD+C)+RI, wherein, Req is a plot of steady-state binding levels to analyte concentration. C is concentration, RI is bulk refractive index contribution in the sample, and Rmax is analyte binding capacity of the surface. When this equation is rearranged, KD can be expressed as Equation 2: KD=C·Rmax/(Req−RI)−C. KD can be calculated by substituting the values of Rmax, RI, and C into Equation 1 or Equation 2. From the current measurement conditions, RI=0, C=2 μmol/L can be used.

Row | KD fold (SG1 = 1) [fold] | Binder
1 | 1 | B1
2 | 1.1 | B2
3 | 2.9 | B3
4 | 0.5 | B4
5 | 5.1 | B5
6 | 0.8 | B6
7 | 3.2 | B7
8 | 1.7 | B8
9 | 6 | B9
10 | 2 | B10

Target: T2, cynomolgus monkey FcγRIIa2 …
Experiment: SPR (Biacore), KD of SG1 / KD of variant;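 further: relative to parent M103205H795-SG1 carrying the SG1 human heavy chain constant region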
Method: as §1, §2

Row | KD fold (SG1 = 1) [fold] | Binder
11 | 1 | B1
12 | 1 | B2
13 | 3.9 | B3
14 | 1.3 | B4
15 | 7.4 | B5
16 | 1 | B6
17 | 4.3 | B7
18 | 2 | B8
19 | 9.6 | B9
20 | 2.3 | B10

Target: T3, cynomolgus monkey FcγRIIa3 …
Experiment: SPR (Biacore), KD of SG1 / KD of variant;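 further: relative to parent M103205H795-SG1 carrying the SG1 human heavy chain constant region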
Method: as §1, §2

Row | KD fold (SG1 = 1) [fold] | Binder
21 | 1 | B1
22 | 4.7 | B2
23 | 5.9 | B3
24 | 3.1 | B4
25 | 8.9 | B5
26 | 0.7 | B6
27 | 6.3 | B8
28 | 13.1 | B9
29 | 8.5 | B10

Target: T4, cynomolgus monkey FcγRIIb extracellular …
Experiment: SPR (Biacore), KD of SG1 / KD of variant;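 further: relative to parent M103205H795-SG1 carrying the SG1 human heavy chain constant region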
Method: as §1, §2

Row | KD fold (SG1 = 1) [fold] | Binder
30 | 1 | B1
31 | 1.6 | B2
32 | 8.9 | B3
33 | 1.4 | B4
34 | 9.5 | B5
35 | 1 | B6
36 | 5.5 | B7
37 | 3.5 | B8
38 | 11.9 | B9
39 | 3.8 | B10

Target: T7, cynomolgus monkey FcγRIIIaS extracellular domain, C-terminal His-tag (cynomolgus monkey, UniProt A3RFZ7 21-206 (rhesus entry))
T7 construct: also called cyno FcγRIIIaS; cynoFcγRIIIaS; not shown: His-tag added to C-terminus
Experiment: SPR (Biacore), KD of SG1 / KD of variant
Method: as §1, §2

T7 sequence (A3RFZ7 21-206): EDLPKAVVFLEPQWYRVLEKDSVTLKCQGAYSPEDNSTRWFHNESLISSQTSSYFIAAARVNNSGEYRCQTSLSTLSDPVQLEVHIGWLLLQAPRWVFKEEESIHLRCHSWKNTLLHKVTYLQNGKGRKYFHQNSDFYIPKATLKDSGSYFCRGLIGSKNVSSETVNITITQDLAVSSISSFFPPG

Row | KD fold (SG1 = 1) [fold] | Binder
40 | 1 | B1
41 | 0.04 | B2
42 | 1.29 | B3
43 | 0.06 | B4
44 | 0.16 | B5
45 | 2.57 | B6
46 | 0.2 | B7
47 | 0.09 | B8
48 | 0.19 | B9
49 | 0.09 | B10

Target: T5, human FcγRIIaH extracellular domain, …
Experiment: SPR (Biacore), KD of SG1 / KD of variant
Method: as §1, §2

Row | KD fold (SG1 = 1) [fold] | Binder
50 | 1 | B1
51 | 0.3 | B2
52 | 18.6 | B3
53 | 0.2 | B4
54 | 1.2 | B5
55 | 3.6 | B6
56 | 8.5 | B7
57 | 0.5 | B8
58 | 2 | B9
59 | 0.7 | B10

Target: T6, human FcγRIIaR extracellular domain, …
Experiment: SPR (Biacore), KD of SG1 / KD of variant
Method: as §1, §2

Row | KD fold (SG1 = 1) [fold] | Binder
60 | 1 | B1
61 | 6.5 | B2
62 | 13.3 | B3
63 | 6.9 | B4
64 | 1.3 | B5
65 | 6.5 | B6
66 | 2.4 | B7
67 | 17.7 | B8
68 | 1.6 | B9
69 | 13 | B10

Target: T8, human FcγRIIIaV extracellular domain, C-terminal His-tag (human, UniProt P08637 17-208)
T8 construct: also called FcgRIIIaV; not shown: His-tag added to C-terminus
Experiment: SPR (Biacore), KD of SG1 / KD of variant
Method: as §1, §2

T8 sequence (P08637 17-208 F176V): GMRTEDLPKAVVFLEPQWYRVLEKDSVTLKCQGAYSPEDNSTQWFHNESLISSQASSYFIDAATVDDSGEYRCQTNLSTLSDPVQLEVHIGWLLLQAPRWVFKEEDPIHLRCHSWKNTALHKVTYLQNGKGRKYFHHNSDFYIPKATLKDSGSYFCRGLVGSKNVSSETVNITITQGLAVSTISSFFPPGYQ

Row | KD fold (SG1 = 1) [fold] | Binder
70 | 1 | B1
71 | 0.02 | B2
72 | 0.52 | B3
73 | 0.03 | B4
74 | 0.06 | B5
75 | 1.4 | B6
76 | 0.18 | B7
77 | 0.04 | B8
78 | 0.03 | B9
79 | 0.02 | B10
